Experimental data published in patent US20240228562A1, “NOVEL LIPOCALIN MUTEINS SPECIFIC FOR CONNECTIVE TISSUE GROWTH FACTOR (CTGF)” (PIERIS PHARMACEUTICALS GMBH, priority 2021, published 2024).
Marks after values point to notes of the source that are not given here. One block for each molecule: values may come before it.

What was measured:
[1] = system: TGF-β1-stimulated normal human lung fibroblasts (NHLFs); assay: Binding to activated human lung fibroblasts; format: cell-based; details: 24 h incubation with 10 ng/ml TGF-β1; immunofluorescence of lipocalin scaffold
Procedure: Binding of the CTGF-targeting lipocalin muteins and fusion proteins disclosed herein to CTGF-expressing, TGF-β1-stimulated normal human lung fibroblasts (NHLFs) was tested by incubating NHLFs for 24 h with constructs and 10 ng/ml TGF-β1, which induces CTGF expression. NHLFs without TGF-β1 stimulation were included as negative control. Constructs were detected with a secondary antibody against the lipocalin scaffold coupled to AlexaFluor647 after NHLFs were fixed in 4% PFA and blocked with 5% BSA. Images were acquired on the Cytation5 Reader (Biotek). Signals were quantified in Gene5 software and normalized to the respective controls. For the experiments, cells were grown under conditions that facilitate pseudo-3D extracellular matrix deposition as described by Good et al. (Good et al., BMC Biomed Eng, 1:14 (2019)).
Representative data are shown in FIG. 4 and illustrate the ability of the CTGF-targeting lipocalin muteins and fusion proteins disclosed herein to bind to activated human lung fibroblasts expressing CTGF in a concentration-dependent manner.

[2] = Nebulization behavior, droplet size distribution by laser diffraction; format: physicochemical; details: vibrating mesh nebulizer, Malvern Spraytec
Procedure: The suitability of the CTGF-targeting lipocalin muteins and fusion proteins disclosed herein for administration via inhalation was tested using a commercially available vibrating mesh nebulizer (Philips InnoSpire Go®). Droplet size distribution was characterized by laser diffraction using the nebulizer in conjunction with Malvern Spraytec and inhalation cell.
Representative data for the exemplary CTGF-targeting lipocalin mutein of SEQ ID NO: 23 (A) and for the fusion protein of SEQ ID NO: 74 (B) are shown in FIG. 5 and below Table 10. […] Nebulization of the lipocalin muteins and fusion proteins had no negative impact on the stability and activity of the molecules (data not shown).

[3] = molecular target: T1, huCTGF domains 1 and 2 with human Fc tag (Homo sapiens, UniProt P29279); assay: ELISA binding to CTGF fragments, human CTGF domains 1 and 2; details: coated 1 μg/ml, muteins from 1000 nM; for EC50: read-out: EC Human CTGF1-2-huFc
T1 construct: purchased Evitria
T1 sequence (P29279 with tags, fused parts or gaps): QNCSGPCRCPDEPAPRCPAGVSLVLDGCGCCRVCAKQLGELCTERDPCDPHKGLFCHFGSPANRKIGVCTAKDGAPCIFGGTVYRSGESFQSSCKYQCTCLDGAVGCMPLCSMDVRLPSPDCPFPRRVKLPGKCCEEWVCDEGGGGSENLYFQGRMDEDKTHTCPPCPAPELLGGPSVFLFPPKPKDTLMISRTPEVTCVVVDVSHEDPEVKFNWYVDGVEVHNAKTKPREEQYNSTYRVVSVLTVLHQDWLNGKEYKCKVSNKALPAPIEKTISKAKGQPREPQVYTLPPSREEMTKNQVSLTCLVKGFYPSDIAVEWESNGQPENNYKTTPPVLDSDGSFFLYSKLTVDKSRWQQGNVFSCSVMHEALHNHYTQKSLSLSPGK
Procedure: (§1) Binding of muteins to fragments of human and murine CTGF was tested by an ELISA assay. In detail, a 384-well plate suitable for fluorescence measurements (Greiner FLUOTRAC™ 600, black flat bottom, high-binding) was coated with 20 μl of human (R&D Systems, SEQ ID NO 79) and murine CTGF (Biozol, SEQ ID NO: 80) or fragments thereof (Evitria, huCTGF domains 1 and 2 with human Fc tag (SEQ ID NO 77) and muCTGF domains 1 and 2 with human Fc tag (SEQ ID NO 78)) at a concentration of 1 μg/ml in PBS over night at 4° C. After washing with PBS with 0.05% Tween 20, wells were blocked with 100 μl blocking buffer containing 0.1% Tween 20 and 2% BSA (PBS-T/BSA) for 1 h at room temperature. 20 μl of serially diluted muteins starting at 1000 nM were incubated in PBS-T/BSA for 1 h at room temperature.
(§2) The residual supernatants were discarded and 20 μl HRP-labeled anti-Strep-Tag antibody was added at a predetermined optimal concentration in PBS-T/BSA and incubated for 1 h at RT. After washing, 20 μl fluorogenic HRP substrate (QuantaBlu, Thermo) was added to each well, and the reaction was allowed to proceed for 5 to 25 minutes. The fluorescence intensity of every well on the plate was read using a fluorescence microplate reader (Tecan). Curve fitting was performed using GraphPad Prism 7 software.

[4] = molecular target: T2, muCTGF domains 1 and 2 with human Fc tag (Mus musculus, UniProt P29268); assay: ELISA binding to CTGF fragments, murine CTGF domains 1 and 2; details: coated 1 μg/ml, muteins from 1000 nM; for EC50: read-out: EC Murine CTGF1-2-huFc
T2 construct: purchased Evitria
T2 sequence (P29268 with tags, fused parts or gaps): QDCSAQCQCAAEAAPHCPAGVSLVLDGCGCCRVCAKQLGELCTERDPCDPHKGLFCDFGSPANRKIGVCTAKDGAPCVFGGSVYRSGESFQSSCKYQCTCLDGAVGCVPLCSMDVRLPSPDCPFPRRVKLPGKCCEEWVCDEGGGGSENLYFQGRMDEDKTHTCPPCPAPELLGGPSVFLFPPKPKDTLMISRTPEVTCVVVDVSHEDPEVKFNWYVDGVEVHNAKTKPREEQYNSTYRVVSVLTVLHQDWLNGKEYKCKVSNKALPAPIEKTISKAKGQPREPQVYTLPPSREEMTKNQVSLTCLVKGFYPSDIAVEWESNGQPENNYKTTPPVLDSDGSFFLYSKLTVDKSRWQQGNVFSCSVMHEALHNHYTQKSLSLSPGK
Procedure: as §1, §2

[5] = molecular target: T3, Murine CTGF (Mus musculus, UniProt P29268); assay: ELISA binding to full-length murine CTGF (Example 9); details: coated 1 μg/ml, muteins from 1000 nM; for EC50: read-out: EC Murine CTGF
T3 construct: Fc (N); purchased Biozol
T3 sequence (P29268 with tags, fused parts or gaps): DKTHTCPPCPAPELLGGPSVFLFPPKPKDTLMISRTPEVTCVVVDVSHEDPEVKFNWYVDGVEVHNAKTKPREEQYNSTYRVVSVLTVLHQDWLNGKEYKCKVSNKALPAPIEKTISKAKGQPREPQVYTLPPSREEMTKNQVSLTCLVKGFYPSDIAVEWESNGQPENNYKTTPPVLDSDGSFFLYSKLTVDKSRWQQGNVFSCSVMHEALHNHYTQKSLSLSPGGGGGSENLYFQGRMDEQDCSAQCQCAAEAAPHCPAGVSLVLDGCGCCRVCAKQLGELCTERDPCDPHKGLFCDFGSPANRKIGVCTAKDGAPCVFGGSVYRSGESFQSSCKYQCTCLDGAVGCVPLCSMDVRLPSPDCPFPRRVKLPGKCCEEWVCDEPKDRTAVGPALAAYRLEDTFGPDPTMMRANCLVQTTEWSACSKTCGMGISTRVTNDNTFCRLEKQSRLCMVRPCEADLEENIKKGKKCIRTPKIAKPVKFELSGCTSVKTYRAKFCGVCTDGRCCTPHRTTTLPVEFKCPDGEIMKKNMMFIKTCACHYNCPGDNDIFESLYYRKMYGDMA
Procedure: as §1, §2

[6] = Mouse lung PK; format: in vivo; details: mice
Procedure: The lipocalin mutein (100 μg/mouse) was oropharyngeally administered to mice, and exposure in different compartments was measured after 2, 4, 8 and 24 h by ELISA (FIG. 7A). 100 μg of the antibody were administered to mice via intravenous infusion, and exposure was measured after 1, 8, 24 and 96 h by ELISA (FIG. 7B).

[7] = system: cynomolgus CTGF; assay: SPR binding kinetics and affinity, cynomolgus CTGF; design: key: B binding without determination of kinetics constants; details: 25° C., 1:1 binding model
Chain of cynomolgus CTGF (as listed by the source): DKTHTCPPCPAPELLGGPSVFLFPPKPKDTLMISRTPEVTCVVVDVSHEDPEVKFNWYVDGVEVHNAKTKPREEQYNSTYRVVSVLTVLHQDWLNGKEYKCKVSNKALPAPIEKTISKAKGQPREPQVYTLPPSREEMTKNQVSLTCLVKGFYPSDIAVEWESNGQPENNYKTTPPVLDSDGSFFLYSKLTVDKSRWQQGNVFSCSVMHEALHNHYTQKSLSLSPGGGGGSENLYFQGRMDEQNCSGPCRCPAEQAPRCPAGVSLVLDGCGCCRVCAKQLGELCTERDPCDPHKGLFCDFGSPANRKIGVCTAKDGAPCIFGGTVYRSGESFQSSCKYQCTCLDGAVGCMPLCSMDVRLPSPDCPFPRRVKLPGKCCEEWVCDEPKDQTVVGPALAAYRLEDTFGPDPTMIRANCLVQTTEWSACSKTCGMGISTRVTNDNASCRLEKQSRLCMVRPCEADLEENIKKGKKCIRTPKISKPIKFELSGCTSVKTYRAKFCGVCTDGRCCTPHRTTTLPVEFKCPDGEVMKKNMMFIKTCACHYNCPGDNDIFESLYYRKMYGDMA
Procedure: Surface plasmon resonance (SPR) was used to measure binding kinetics and affinity of the representative lipocalin muteins disclosed herein.
The binding of exemplary lipocalin muteins to human (Creative Biomart), cynomolgus, rat (R&D Systems) and mouse CTGF (Abbexa) was determined by SPR using a Biacore instrument (Cytiva, formerly GE Healthcare). Some targets were fused to a human IgG1 Fc tag, and captured via the anti-human IgG antibody kit, others were directly immobilized.
For some measurements, human CTGF with a human IgG1 Fc Tag or rat or murine CTGF without a tag were directly immobilized to a CM5 Chip. The carboxyl groups on the chip were activated using 1-ethyl-3-(3-dimethylaminopropyl)-carbodiimide (EDC) and N-hydroxysuccinimide (NHS). Subsequently, the targets at a concentration of 3-5 μg/mL in 10 mM sodium acetate (pH) 4.5 were applied at a flow rate of 10 μL/min until an immobilization level of 300-1100 resonance units was achieved. Residual non-reacted NHS-esters were blocked by passing a solution of 1 M ethanolamine across the surface. The reference channel was activated/deactivated. For the capture setting, targets with an IgG Fc Tag at 0.25-2.5 μg/mL in HBS-EP+ buffer were captured by the anti-human IgG-Fc antibody at the chip surface for 180 s at a flow rate of 10 μL/min.
The binding assay was carried out with a contact time of 180 s, a dissociation time of 900-3600 s and a flow rate of 30 μL/min. All measurements were performed at 25° C. […] For the directly immobilized targets, the same regeneration conditions were used. Prior to the protein measurements, three startup cycles were performed for conditioning purposes. Data were evaluated with Biacore Evaluation software. Double referencing was used and the 1:1 binding model was used to fit the raw data.
The values determined for kon, koff and the resulting equilibrium dissociation constant (KD) for exemplary lipocalin muteins are summarized in Table 4.

[8] = mutein 100 μg oropharyngeal, antibody 100 μg intravenous, compartment of administration set to 100%

B4: SEQ ID NO: 7: parent CTGF-binding hNGAL lipocalin mutein (protein)
chain: QDSTSDLIPAPPLSKVPLQQNFQDNQFHGKWYVVGLAGNYGLRTDKRPSKMFATIYELKEDKSYDVTSVRFEQERCHYTIRTFVPGSQPGEFTTGSIKSRPGQTSSLVRVVSTNYNQHAMVFFKSVIQNREYFAITLYGRTKELTSELKENFIRFSKSLGLPENHIVFPVPIDQCIDG
modifications: lipocalin mutein
- EC50 [3]: 17 nM
- EC50 [4]: 14 nM
- EC50 [5]: 29 nM

B5: SEQ ID NO: 3: parent CTGF-binding hNGAL lipocalin mutein (protein)
chain: QDSTSDLIPAPPLSKVPLQQNFQDNQFHGKWYVVGRAGNNRLREDKDPPKMWATIYELKEDKSYNVTHVHFMTKKCRYIIDTFVPGSQPGEFTLGAIKSGPGMTSPLVRIVSTNYNQHAMVFFKWVNQNREWFTITLYGRTKELTSELKENFIRFSKSLGLPENHIVFPVPIDQCIDG
modifications: lipocalin mutein
- EC Human CTGF1-2-huFc [3]: n.b.
- EC Murine CTGF1-2-huFc [4]: n.b.
- EC Murine CTGF [5]: n.b.

B8: SEQ ID NO: 9: parent CTGF-binding hNGAL lipocalin mutein (protein)
chain: QDSTSDLIPAPPLSKVPLQQNFQDNQFHGKWYVVGLAGNKILRIDKQPAKMFATIYELKEDKSYDVTSVRFEARSCSYTIKTFVPGSQPGEFTAGNIKSAPGQTSTLVRVVSTNYNQHAMVFFKHVSQNRETFVITLYGRTKELTSELKENFIRFSKSLGLPENHIVFPVPIDQCIDG
modifications: lipocalin mutein
- EC50 [3]: 8 nM
- EC50 [4]: 5.8 nM
- EC50 [5]: 11 nM

The next lines start with results.

- Binding to TGFβ-activated NHLFs [1]: binding
B1: SEQ ID NO: 74: fusion protein comprising two CTGF-binding lipocalin muteins (protein)
chain: QDSTSDLIPAPPLSKVPLQQNFQDNQFQGKWYVVGLAGNAILREDKQPAKMFATIYELKEDKSYDVTSVRFEAKSCKYTIKTFVPGSQPGEFTAGYIKSAPGQTSTLVRVVSTNYNQHAMVFFKHVTQNREIFVITLYGRTKELTSELKENFIRFSKSLGLPENHIVFPVPIDQCIDGGGGGSGGGGSGGGGSQDSTSDLIPAPPLSKVPLQQNFQDNQFQGKWYVVGWAGNVKLREDKQPQKMSATIYELKEDKSYDVTEVVFEQKKCHYIIKTFVPGSQPGEFTAGDIKSPPGYTSSLVRVVSTNYNQHAMVFFKKVSQNREFFWITLYGRTKELTSELKENFIRFSKSLGLPENHIVFPVPIDQCIDG
modifications: fusion protein
- % V < 1 μm [2]: 0.984%
- % V < 5 μm [2]: 54.81%
- % V < 10 μm [2]: 88.4%
- Dv10 [2]: 1.8 μm
- Dv50 [2]: 4.6 μm
- Dv90 [2]: 10.5 μm
- Dv10 ([2]; listed as 74): 1.824 μm
- Dv50 ([2]; listed as 74): 4.589 μm

- EC50 [3]: 8.8 nM
- EC50 [4]: 14 nM
- EC Murine CTGF [5]: n.b.
B2: SEQ ID NO: 25: parent CTGF-binding hNGAL lipocalin mutein (protein)
chain: QDSTSDLIPAPPLSKVPLQQNFQDNQFHGKWYVVGMAGNFRLREDKDPSKMGATIYELKEDKSYNVTQVQFDDKKCLYVIETFVPGSQPGEFTLGAIKSFPGFTSQLVRVVSTNYNQHAMVFFKKVYQNREVFWITLYGRTKELTSELKENFIRFSKSLGLPENHIVFPVPIDQCIDG
modifications: lipocalin mutein

- EC50 [3]: 8.4 nM
- EC50 [4]: 17 nM
- EC Murine CTGF [5]: n.b.
B3: SEQ ID NO: 29: parent CTGF-binding hNGAL lipocalin mutein (protein)
chain: QDSTSDLIPAPPLSKVPLQQNFQDNQFHGKWYVVGWAGNIKLREDKDPFKMSATIYELKEDKSYNVTEVVFEQKKCHYIIKTFVPGSQPGEFTLGDIKSPPGETSSLVRVVSTNYNQHAMVFFKKVFQNREFFWITLYGRTKELTSELKENFIRFSKSLGLPENHIVFPVPIDQCIDG
modifications: lipocalin mutein

- cynomolgus CTGF KD [7]: B
- cynomolgus CTGF koff [7]: B
- cynomolgus CTGF kon [7]: B
- Binding to TGFβ-activated NHLFs [1]: binding
B6: SEQ ID NO: 23: optimized CTGF-binding hNGAL lipocalin mutein (protein)
chain: QDSTSDLIPAPPLSKVPLQQNFQDNQFQGKWYVVGVAGNAILRPDKQPAKMFATIYELKEDKSYDVTSVRFEAKSCKYTIKTFVPGSQPGEFTSGQIKSAPGQTSTLVRVVSTNYNQHAMVFFKHVSQNREIFVITLYGRTKELTSELKENFIRFSKSLGLPENHIVFPVPIDQCIDG
modifications: lipocalin mutein
- Exposure in the lung ([6]; 100 μg/mouse oropharyngeal, 2-24 h, ELISA): significant exposure in the lung over 24 h
- Lung exposure compared to plasma [6, 8]: 100* %
- Plasma exposure compared to lung [6, 8]: approx. 1%
- Plasma exposure compared to lung ([6]; mutein 100 μg oropharyngeal, antibody 100 μg intravenous, compartment of administration set to 100%, listed as 23): 0.9%
- % V < 1 μm [2]: 1.874%
- % V < 5 μm [2]: 68.97%
- % V < 10 μm [2]: 93.55%
- Dv10 [2]: 1.4 μm
- Dv50 [2]: 3.5 μm
- Dv90 [2]: 8.6 μm
- Dv10 ([2]; listed as 23): 1.471 μm
- Dv50 ([2]; listed as 23): 3.484 μm
- Dv90 ([2]; listed as 23): 8.622 μm

- cynomolgus CTGF koff [7]: 7.57e-05 s⁻¹
- cynomolgus CTGF kon [7]: 107000 M⁻¹ s⁻¹
B7: SEQ ID NO: 15: optimized CTGF-binding hNGAL lipocalin mutein (protein)
chain: QDSTSDLIPAPPLSKVPLQQNFQDNQFQGKWYVVGLAGNAILREDKQPAKMFATIYELKEDKSYDVTSVRFEAKSCKYTIKTFVPGSQPGEFTAGYIKSAPGQTSTLVRVVSTNYNQHAMVFFKHVTQNREIFVITLYGRTKELTSELKENFIRFSKSLGLPENHIVFPVPIDQCIDG
modifications: lipocalin mutein
